Experimental data taken from PMC10140725 (Scientific Reports, 2023).

What was measured:
[1] = biological target: hemagglutinin (HA) of H1N1 influenza A strain A/Almaty/32/1998, mature HA1/HA2 trimer (Influenza A virus H1N1, strain A/Almaty/32/1998); assay: crystal structure
[2] = biological target: hemagglutinin (HA) of H1N1 influenza A strain A/Jiangsu/ALS1/2011, mature HA1/HA2 trimer (Influenza A virus H1N1, strain A/Jiangsu/ALS1/2011); assay: crystal structure

hemagglutinin (HA) of H1N1 influenza A strain A/Almaty/32/1998, mature HA1/HA2 trimer (natural protein)
stoichiometry N [1]: 3

hemagglutinin (HA) of H1N1 influenza A strain A/Jiangsu/ALS1/2011, mature HA1/HA2 trimer (natural protein)
stoichiometry N [2]: 3
